Consider 22 sequences from the DeepSol protein solubility set.

The data set in a line: soluble on expression in E. coli; label from the status in PepcDB or PDB records.
Take “MGSDKIHHHHHHMHVVELRFECFDNTTITAAERAINGLLEAYRANGQVLGREFAVAFNEGEFRVRLLLPEKSSLAKRFNSPWVNYALEELTQAKLLHPREKYIGQDINSEVSSTETPSWQLLYTSYVHMCSPLRNGDTLQPIPLYQIPATFNGDHKRVIKWQTEWQACDELQMAAATKAEFAALDELSQCDSDLFRRGWDLRGRIEYLTKIPTYYYLYRVGGESLAAEQQRPCPRCGNTHWLLETPLLDLFHFRCDNCRIVSNISWDHL”: the “soluble on expression in E. coli” value was “not soluble”.

As for “MGSDKIHHHHHHAFLTLKPVKTPFTMYSSVLGDFVITQLDENKQLHRYDTKGNTYTQQQVDSLLPSLYVRQLTADERFPDTICGKAVSPKDIQLTNFTFKSVPSAINAPQTGLYFLMESMSKRVDLKMPEDAFRFTDKGIEFIRMETNCIDEAKSKLFTDMLVQKGFAFPACYASGNPTTRKDYDEGYLVLDANHKLFHLKCTKGRPYVKAIQLPEGVLPEYVFITEFRSRRTLGYMVDSKHHFYIINSDGSLVKSALPGFDPAKDELTIFGNMFDWTVKLSTDKDDYYYALDATDYSLIKEHAYKDIRRSVPGLSFTSPDDKFVKPRF”, the “soluble on expression in E. coli” value was “not soluble”.

Turning to “MDLKKLLPCGKVIVFRKGEIVKHQDDPIEDVLILLEGTLKTEHVSENGKTLEIDEIKPVQIIASGFIFSSEPRFPVNVVAGENSKILSIPKEVFLDLLMKDRELLLFFLKDVSEHFRVVSEKLFFLTTKTLREKLMNFLVRHMNEKRELTLPVTLEELSRLFGCARPALSRVFQELEREGYIEKHGRRIKVLKNPFEHDRI”, the “soluble on expression in E. coli” value is “not soluble”.

As to “MNNNHYTYRVLWSQEDEEYVGLCAEFPSLSWLDAQAEKALKGIMDLVSEVVEDMQHNGEEVPVPLSHGKYSGKFQLRIPPELHRKLAIQAAENGVSLNRYISSKL”, the “soluble on expression in E. coli” value is “not soluble”.

“ALSPPRRKSFKKWTPPRSPFNLVQEILFHDPWKLLIATIFLNRTSGKMAIPVLWEFLEKYPSAEVARAADWRDVSELLKPLGLYDLRAKTIIKFSDEYLTKQWRYPIELHGIGKYGNDSYRIFCVNEWKQVHPEDHKLNKYHDWLWENHEKLSLS”: the “soluble on expression in E. coli” value was “soluble”.

“MGSDKIHHHHHHMSDSEKEILKRIKDNPFISQRELAEAIGLSRPSVANIISGLIQKEYVMGKAYVLNEDYPIVCIGAANVDRKFYVHKDLVAETSNPVTSTRSIGGVARNIAENLGRLGETVAFLSASGQDSEWEMIKRLSTPFMNLDHVQQFENASTGSYTALISKEGDMTYGLADMEVFDYITPEFLIKRSHLLKKAKCIIVDLNLGKEALNFLCAYTTKHQIKLVITTVSSPKMKNMPDSLHAIDWIITNKDETETYLNLKIESTDDLKIAAKRWNDLGVKNVIVTNGVKELIYRSGEEEIIKSVMPSNSVKDVTGAGDSFCAAVVYSWLNGMSTEDILIAGMVNAKKTIETKYTVRQNLDQQQLYHDMEDYKNGKFTKVY”: the “soluble on expression in E. coli” value is on record as “not soluble”.

Turning to “MAICKVFRNYCKENDIQLHQANFSLSYDTNIPRQTGLSGSSAIVSAALNCLLDFYNVRHLIKVQVRPNIVLSAEKELGIVAGLQDRVAQVYGGLVHMDFSKEHMDKLGHGIYTPMDISLLPPLHLIYAENPSDSGKVHSMVRQRWLDGDEFIISSMKEVGSLAEEGRTALLNKDHSKLVELMNLNFDIRRRMFGDECLGAMNIEMVEVARRVGAASKFTGSGGAVVVFCPEGPSQVKLLEEECRKAGFTLQPVKIAPSCLNDSDIQTL”, the “soluble on expression in E. coli” value was “not soluble”.

“MGSDKIHHHHHHVRIESIRTKNFKILKDTTIRNIPAMAIFLGANGSGKSTFFDIFGFLHDCLTDNVRAALLKRGGFKEVVSRGQSGPIEFEIKFRSAPGEPLVTYELHINLDDKGLPIVSKELLKYRRGQKGRPWHFLDFSNGVGHAIVNESEYGKPGVQEAREQQTLDSPDILAIKGLGQFQKYKQIASFRRLIEGWHVSDFRIESARSTNDAGYAEHLSATGDNLALVTQFMHEHYSDRFQQVLEKIAQRVPGIKSVEAKETADGRIVLRFQNEEFKDPFISRYVSDGTLKMFAYLILLYDPTPHPLLCIEEPENQLHPDLLLELAEEFRAYASNGGQVFISTHSPDFVNAVQLEELFWLCQGNNGFSKVVRASDEPLLQSLVAEGDLPGSLWKQGFFEGAGPL”: the “soluble on expression in E. coli” value is “not soluble”.

“MDNHKCVLVIDKALPQGLIANTAAVLTLSLGKLHPELIGADNVNKNGEIHTGITSIPIPILASSSHKIKEIRASLKEEATLVDFSNVAQTTKNYQDYSDKLAATRPEDIEYLGIAIYGTKKIINKHTGNLGLIRLEHHHHHH”: the “soluble on expression in E. coli” value was “soluble”.

As to “GAMGSGIPMEACPHIRYAFQNDKLLLQQASVGRLTLVNKTTILLRPMKTTTVDLGLYARPPEGHGLMLWGSTSRPVTSHVGIIDPGYTGELRLILQNQRRYNSTLRPSELKIHLAAFRYATPQMEEDKGPINHPQYPGNVGLDVSLPKDLALFPHQTVSVTLTVPPPSIPHHRPTIFGRSGLAMQGILVKPCRWRRGGVDVSLTNFSDQTVFLNKYRRFCQLVYLHKHHLTSFYSPHSDAGVLGPRSLFRWASCTFEEVPSLAMGDSGLSEALEGRQGRGFGSSGQ”, the “soluble on expression in E. coli” value is given as “soluble”.

Turning to “MQIAREETRKSGANILYVINHQRPSIFGSSMHQIGGLMLLSDSVVRNEGEGYPDSLLYDSGQRGKIGSRIKAPVHDLSFHFGPSTITNRTKGLSYSEQQLEKKLSNGLSFVLQYKCHPKGNLYGFGLIASRYEADITKKIEYQGIGFANRLDYIAPLFSMSTALSERWFLGMSFGKDGSQSVRLHYRFARLPVDRDLSAVGCVRKKSPHTDDCRLTVSPLYRPS”, the “soluble on expression in E. coli” value is given as “not soluble”.

On to “LDPEEIRKRLEHTERQFRNRRKILIRGLPGDVTNQEVHDLLSDYELKYCFVDKYKGTAFVTLLNGEQAEAAINAFHQSRLRERELSVQLQPTDALLCVANLPPSLTQQQFEELVRPFGSLERCFLVYSERTGQSKGYGFAEYMKKDSAARAKSDLLGKPLGPRTLYVHWTDAGQLTPALLHSRCLCVDRLPPGFNDVDALCRALSAVHSPTFCQLACGQDGQLKGFAVLEYETAEMAEEAQQQADGLSLGGSHLRVSFCAPGPPGRSMLAALIAAQATALNRG”, for which the “soluble on expression in E. coli” value is “soluble”.

“MGSDKIHHHHHHMSYSDVIAIAGGWEGYRVAGARTIVTSDAKRIEVELIALSQDEMVCGSCGGRCTSVHETTKRVIRDLPILDAQTYLIVHRRRLLCPQCGPTLERLSWLAKYARVTRRLAESVARLCGVVSVKHVAQYLGLSWDQVKEIDKRSLTERVGTVDLSNIEVLGMDEFALHKGHRYATVIIEPYRKEVLWIGKGRSRESIRPFFTQLGPHGCKRLKAVVMDMNASYEEEIKQHSPQADIVYDLFHVVAKYGREVIDRVRVDEANRLKEDKKARKVVKTSRWLLLRNSENVKGDDMLRLQELLEANRSLLTVYLLKDDLKQLWKFTCIEEAGLFWEQWHQRAMESGIPPLILFARRLKGYLQGILNHCLWPLHTGILEGINNKIKVIKRMAYGFRDHEYFFLKIRAAFPGIPG”: the “soluble on expression in E. coli” value is “not soluble”.

As to “MGSDKIHHHHHHMNLLKIIDDLQLEKIDQEEFLKPALRRGLFKKASDFSLKAALTSLPFALFAMPRIVQASTQANTQSVTDTLNYALTLEYLEEAFYVQGLAKSGLIDSADMTIFNQIKKHESAHVVFLKNVLGSAANPSPAFDFGTAFDSYANFLATAQALEDTGVRAYKGQAGNLITNKVALTAALQIHSVEARHASEVRRLRMLNGWIGVGEAGATYGAGEDANFPAESNLTQGGVDLSILASADVTMTNIAEAFDEPLDKNTVFGIAQGFIVS”, the “soluble on expression in E. coli” value is on record as “not soluble”.

On to “MSLNSAAQAQSSDPVVIGCPAPLTGIVAADGIEFQRGIQMAADEINAVGGILGRPIELVFADTQSKGVDVVIQSAQRLIDRDNASALIAGYNLENGTALHDVAADAGVIAMHANTVAVHDEMVKSDPDRYWGTFQYDPPETLYGGGFLKFLKDIEDNGEFSRPNNKIAIITGPGIYSVNIANAIRDGAGEYGYDVSLFETVAIPVSDWGPTLAKLRADPPAVIVVTHFYPQDQALFMNQFMTDPTNSLVYLQYGASLAAFRDIAGDNSVGVTYATVLGTLQDEMGDAFAKAYKERYGDLSSTASGCQTYSALYAYSIAAALAGGPGAPYDDVQNKAVADRLRSLIFRGPVGTMRFHADTQSAWSYPTETNDPSLGMPHIFSQIFDKAEDGVLIAPAPYKKAGFKMPPWMKGEGHHHHHH”, for which the “soluble on expression in E. coli” value was “soluble”.

For the sequence “MRQRTIVCPLIQNDGCYLLCKMADNRGVFPGQWALSGGGVEPGERIEEALRREIREELGEQLILSDITPWTFRDDIRIKTYADGRQEEIYMIYLIFDCVSANRDICINDEFQDYAWVKPEELALYDLNVATRHTLALKGLL”, the “soluble on expression in E. coli” value was “not soluble”.

For the sequence “MEHKTPKHIVAVAGYLTNEKNEVLLTKVHWRADTWELPGGQVEEGEALDQAVCREIKEETGLTVKPIGITGVYYNTSMHILAVVFKVAYISGEIKIQPEEIQEAKFVDLNEENIDEYITRPHMKSRTLDAMRATHFIPYETWEVQPYNLIGRL”, the “soluble on expression in E. coli” value is given as “not soluble”.

With “MSLSETSRQLSGRFLHVTDFHLDTHYRKGTSEETLCHRDSGSAGRLGAEGSDCDSPQALIDETFRWIEKNLKGKIDFVLWTGDSARHDNDEKIPRTASEIIDLNKALAAKFIEVFEDSGAARGLSIPVIPTIGNNDIMPHNIFREAPNRWTRKFTEVWSEFIPEAQRHTFEEGGWFSAELIPNKLAALSLNTMYFYESNSAVDGCAMPSEPGFEHMEWLRVQLEILRQRGMKAILIGHVPPARSGSKRSWDESCWQKYTLFMNRFRDVVVGSVYGHMNVDHFMLQDSHDVDIVAASEDSSSDPGFSVQSRTDYLASLREEWDSMPSPPGGDSSDILLSDDWNLDALGKKEREGHHHHHH”, the “soluble on expression in E. coli” value was “soluble”.

As to “MNEKYEAVIGLEIHVQMDTKTKMFCGCKVEFGAEPNTNVCPVCLGMPGALPIVNKRAVEYAIRASLALNCEVHEESVFARKHYFYPDLPKGYQISQYEKPLATNGWVELNLPNGEKKKVRIRRLHIEEDAGKNIHEGDKTLVDLNRAGTPLMEIVTEPDIRTPEEARLFLEKLRNIMRYAGVSKADMEKGQLRCDINVSIRPKGSKEFGTRVEIKNVNSFRFVQKALEYEIERQINVVEEGGEVVQETRTFDPQTGKTYPMRTKEEAEDYRYFPDPDLVPLKVKKEWIEEIKKNMPELPDQRFERLIKEYGLSEYEAGILVNHKEVGDFFEEAVRHFKEPKGIVNWLINDLLGLLRDKGISIEESPVKPEHLAELVKLIKEKVISTKIGKEVIKEMVETGKTPSQIVEEKGLKQITDENQIKELVKKIFEKHPKEVERLKQGEEKLIGFFVGQVMRETRGKANPQVVNKVIRELVKEV”, the “soluble on expression in E. coli” value is given as “soluble”.

Consider “MAHHHHHHMPLPPVEDAPNSMARRHYLVERNRLRVKKYEPTRQAFEEETVKLSKQRVEQRVAMLNSWKSSVPLHTDTTRPLPGAARRQKEKDEPAAKHINLQILDEDAALKRERRALLRADILQQKKDREEYLAKWRANEKAYDSALLATNAEFARQMQEQERQAAVATKQYMDMMRASNLKELEAKRAKQREKEEADVAALRTMQENLRLKMEADERRAKDMKRLMQIENEENHSLFKKKQAEDKAREDAWIRTMMEHNAALAERERREAEQKRQQFKADFEDTIAKQKEFRRTHDYDEPQELIRKRNEEAAASAVLIRQEERLRNNEQRKQYREELMKQMREKYEWQLSHLDGV”, for which the “soluble on expression in E. coli” value is on record as “not soluble”.

For the sequence “GPYATEVELREMVDIAQEHGIVEIEERRMIQSVFDLASTTVRQVMVPRPEMIWIESGKTAGQATALCVRSGHSRIPVIGENVDDIIGIVYLKDLVQKTYYATDGGKSVLVDEVMREATFVPDSKSLDALLQEMQEDHKHIAILVDEYGGVAGLISIEDILEEIVGEIADEYDAREVAPIEKIGDRTYRVVSRL”, the “soluble on expression in E. coli” value is “not soluble”.

Consider “MCRLAVFALLAVAAVSVYGQPAGGQDVPPFLRNATPAQLQSFQQLIQANGHLTETALDGKVQAWVNQQGGKVAADWADFQKFIKGQQGQAEAAHQAAVSNFSPAAKKADADLTAISNDSSLSVQAKGQKIQAYLNSLPANVKAELEKAQGQ”, for which the “soluble on expression in E. coli” value is recorded as “soluble”.
